Results on three molecules are retold here after publication PMC3116947.

Where “and” joins values, the source holds several entries; their conditions need not be identical. Identical values can stand only once.

The target of assay [1] is Gab1 G1 peptide (Homo sapiens). Briefly: ITC.
Assay [2] concerns the target Gab1 G2 peptide (Homo sapiens). In words: ITC.

B1: Grb2 cSH3, P62993 (protein)
chain: QQPTYVQALFDFDPQEDGELGFRRGDFIHVMANSDPNWWKGACHGQTGMFPRNYVTPVNR
In the case of B1, the dissociation constant (Kd) (as a rule, a measure of binding affinity in units of concentration) in assay [1] is 171 µM.

B2: Grb2 cSH3, P62993 (protein)
chain: QQPTYVQALFDFDPQEDGELGFRRGDFIHVMDNSDPNWWKGACHGQTGMFPRNYVTPVNR
Consider B2, for which the Kd in assay [1] was 200 µM and 152 µM and 50 µM; in assay [2] it was 42 µM.

B3: Grb2 cSH3, P62993 (protein)
chain: QQPTYVQALFDFDPQADGELGFRRGDFIHVMDNSDPNWWKGACHGQTGMFPRNYVTPVNR
Regarding B3, the dissociation constant (Kd) amounted to 444 µM in assay [1] and 158 µM in assay [2].
